Measurements from doi:10.1101/2024.01.17.576111.

Molecular target: PbrSYP71ΔTM-His (lacking TM domain of PbrSYP71) (Pyrus bretschneideri)
Assay: MST

Work on “F-actin (Pre-formed Actin Filaments, rabbit skeletal muscle actin) (from UniProt P68135 1-377) (natural protein)” yielded a Kd of 185 nM.
